Molecular target: Her2 (UniProt P04626)
Assay: cell-based or functional assay

| Substance | EC50 nM, concentration of the drug to kill 50% of the tumor cells in vitro, HCC1954 cells | EC50 nM, concentration of the drug to kill 50% of the tumor cells in vitro, SKOV3 cells | EC50 nM, in vitro potency (cytotoxicity), SKBR3 cells | EC50 nM, in vitro potency (cytotoxicity), SKOV3 cells | EC50 nM, concentration of the drug to kill 50% of the tumor cells in vitro, PC3 cells |
| --- | --- | --- | --- | --- | --- |
| 4D5-AzAb (HC274)-AF (antibody) | 0.0212 nM | 0.187 nM | 0.0074 nM | 0.019 nM |  |
| 4D5-AzAb (HC274: LC81)-AF (antibody) | 0.0149 nM | 0.0523 nM |  |  |  |
| 4D5-AzAb (HC359)-AF (antibody) | 0.0241 nM | 0.16 nM |  |  | 1.33 nM |
| 4D5-AzAb (LC81)-AF (antibody) | 0.0437 nM | 0.201 nM |  |  | 1.13 nM |
